Reference: the supplement of paper PMC9732359
± gives the uncertainty stated by the source.

Assay: protein stability index of a GFP-peptide fusion (yeast GPS) (PSI 1-4); higher = more stable; sorted into four equal gates, so the index is relative within each strain
Summary of the method: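 Sequencing reads from sorted gates were used to score each peptide. The library consisted of tiled 17-residue yeast protein peptides fused downstream of GFP on a Cherry-expressing plasmid, pooled and carried in yeast. Mid-log cultures in leucine-free medium were split into four equal gates by GFP/Cherry ratio, and each gate's plasmids were PCR-amplified and Illumina-sequenced. The protein stability index adds up, over all gates, the read frequency multiplied by the gate number.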

| Sequence | protein stability index (doa10∆) | protein stability index (pdr5∆) | protein stability index (san1∆) | protein stability index (ubr1∆) |
| --- | --- | --- | --- | --- |
| IQVAAFIYGMSAKDHPK [PRP8] | 3.24 ± 0.091 | 2.98 ± 0.12 | 3.19 ± 0.082 | 3.17 ± 0.12 |
| EVYTLVDSQGLPYNWDA [ARP7] | 3.31 ± 0.2 | 3.56 ± 0.2 | 2.85 ± 0.14 | 3.22 ± 0.15 |
| VPQGKIVALTNAKDKER [SMC3] | 2.77 ± 0.1 | 2.84 ± 0.14 | 2.83 ± 0.15 | 3.02 ± 0.092 |
| STLQHFQETLDSTVVYP [MED8] | 2.99 ± 0.068 | 3.11 ± 0.055 | 2.96 ± 0.055 | 3.17 ± 0.041 |
| PANNHQLGLQTVIRGNS [SMX2] | 3.02 ± 0.077 | 3.19 ± 0.086 | 2.91 ± 0.074 | 2.85 ± 0.053 |
| NNGSSDKSLDSSNASFN [MED1] | 2.92 ± 0.13 | 3.04 ± 0.15 | 3.08 ± 0.22 | 2.98 ± 0.12 |
| LVDQGFNYSGKDMLYSG [RET1] | 3.46 ± 0.084 | 3.29 ± 0.083 | 3.36 ± 0.052 | 3.52 ± 0.044 |
| KLLDNIQEYQLCDNFNH [COR1] | 2.35 ± 0.074 | 2.31 ± 0.091 | 2.44 ± 0.086 | 2.2 ± 0.064 |
| SGKSNTSNDASNKKETK [ITC1] | 3.14 ± 0.076 | 3.26 ± 0.073 | 3.29 ± 0.058 | 3.18 ± 0.06 |
| SYAVSPYAQKPLQGIFH [QCR8] | 2.51 ± 0.082 | 2.4 ± 0.061 | 2.54 ± 0.054 | 2.6 ± 0.052 |
| GNNVQENELVITSIPKP [RMP1] | 3.42 ± 0.14 | 3.4 ± 0.11 | 3.37 ± 0.065 | 3.15 ± 0.064 |
| NKFHKSIREDILECDLL [SIR2] | 2.73 ± 0.058 | 2.91 ± 0.066 | 3 ± 0.049 | 3.08 ± 0.06 |
| MNDVINTEEVNRLEKEQ [LIN1] | 2.99 ± 0.1 | 3.31 ± 0.17 | 3.27 ± 0.074 | 3.61 ± 0.085 |
| GFIFTSMILEAISTDKI [RRI2] | 1.35 ± 0.082 | 1.27 ± 0.072 | 1.26 ± 0.13 | 1.51 ± 0.083 |
| RREFKQYSLERNSPFWW [PRP8] | 3.06 ± 0.12 | 3.64 ± 0.12 | 3.1 ± 0.12 | 3.19 ± 0.14 |
| VIRMVVLTAAGVERLIF [PRE3] | 2.33 ± 0.17 | 2.99 ± 0.13 | 2.42 ± 0.13 | 3.17 ± 0.14 |
| YGLGLIYAGFGRDTTDY [RPN2] | 3.37 ± 0.12 | 3.03 ± 0.1 | 2.95 ± 0.084 | 3.28 ± 0.088 |
| ERAELETDEYISYTSHI [RPN1] | 3.14 ± 0.071 | 3.19 ± 0.076 | 3.01 ± 0.065 | 3.19 ± 0.05 |
| NSSEKNNNNNNNNNNNN [MED2] | 3.09 ± 0.058 | 3.03 ± 0.058 | 2.95 ± 0.059 | 3.12 ± 0.053 |
| VVGTETRVNAQLESYEY [RRI1] | 2.72 ± 0.18 | 1.65 ± 0.11 | 3.33 ± 0.1 | 2.26 ± 0.1 |
| RTYSKTYSTPKRPYESS [RPS9A] | 2.19 ± 0.055 | 2.23 ± 0.066 | 2.46 ± 0.053 | 2.53 ± 0.043 |
| VRRLEAQRNALNDKVRF [RPT6] | 2.63 ± 0.1 | 2.96 ± 0.089 | 2.77 ± 0.13 | 2.7 ± 0.045 |
| AFETHYRRLFAKRLIHG [CDC53] | 2.46 ± 0.076 | 2.54 ± 0.071 | 2.8 ± 0.09 | 2.89 ± 0.071 |
| NRHNLLNDVVSFLFSAI [SWI1] | 2.19 ± 0.077 | 2.58 ± 0.05 | 2.4 ± 0.067 | 2.4 ± 0.043 |
| KKKAFTKYSAKYAQDGA [RPL3] | 3.03 ± 0.12 | 3.38 ± 0.09 | 3.1 ± 0.054 | 3.04 ± 0.032 |
| KLLLLRINSTDEDLHEF [SRB8] | 2.61 ± 0.2 | 3.06 ± 0.16 | 2.94 ± 0.18 | 3.24 ± 0.27 |
| PSDWQRNSFIRDMIMKR [ITC1] | 3.01 ± 0.072 | 3.03 ± 0.073 | 3.21 ± 0.055 | 2.89 ± 0.047 |

| Sequence | protein stability index (doa10∆) | protein stability index (pdr5∆) | protein stability index (san1∆) | protein stability index (ubr1∆) |
| --- | --- | --- | --- | --- |
| ADTKAPTFTFGSSALAD [YLR335W/NUP2] | 3.25 ± 0.069 | 3.01 ± 0.053 | 3.08 ± 0.048 | 3.11 ± 0.033 |
| ALLRSGRLDRKIEFPLP [RPT5] | – | – | – | 3.43 ± 0.18 |
| EALNLLKFFLVDENETV [LIN1] | 1.52 ± 0.06 | 1.52 ± 0.043 | 1.4 ± 0.12 | 1.14 ± 0.054 |
| RQGLIHQGSGGSVMSAS [SMC3] | 2.75 ± 0.091 | 3.14 ± 0.062 | 2.53 ± 0.086 | 2.69 ± 0.067 |
| TINLDRFMKGRRSKQLI [RPC82] | 2.09 ± 0.1 | 2.64 ± 0.078 | 1.79 ± 0.17 | 2.74 ± 0.078 |
| IQSSLMTNLTYFLHLSV [YCS4] | 2.15 ± 0.065 | 1.94 ± 0.049 | 1.89 ± 0.085 | 2.44 ± 0.058 |
| IKSQYYSRISKLKQLLD [YIL149C/MLP2] | 1.2 ± 0.095 | 1.87 ± 0.11 | 1.64 ± 0.12 | 1.45 ± 0.068 |
| VVEGVTFVVEQLIKQSI [SNU114] | 2.52 ± 0.076 | 2.6 ± 0.095 | 3.44 ± 0.098 | 2.85 ± 0.067 |
| VRNTAPNIRELGVKNLG [YCG1] | 2.88 ± 0.2 | 3.29 ± 0.22 | – | 2.98 ± 0.13 |
| IQNDIYLNDLMITKRIL [RPN12] | 2.34 ± 0.18 | 2.76 ± 0.14 | 2.72 ± 0.25 | 2.65 ± 0.12 |
| QQMQPPNSSANNNPLQQ [GAL11] | 3.02 ± 0.055 | 2.9 ± 0.05 | 2.89 ± 0.041 | 2.95 ± 0.048 |
| ADSAVNRQTLMFTATMT [PRP28] | 2.6 ± 0.056 | 2.72 ± 0.049 | 2.58 ± 0.046 | 2.65 ± 0.049 |
| IFNSNKAKIIPGNGKHA [SIR4] | 2.34 ± 0.11 | 3.13 ± 0.2 | 1.9 ± 0.17 | 2.2 ± 0.093 |
| DDEDDEHNPTIVGGLYY [AAR2] | 3.22 ± 0.12 | 3.14 ± 0.079 | 3.17 ± 0.064 | 3.4 ± 0.1 |
| RVTNTTSTDFPGFSKDA [RPC40] | – | 3.04 ± 0.21 | – | – |
| QIDYKLESFQAVYNKLT [RPS7A] | 2.26 ± 0.043 | 2.4 ± 0.051 | 2.41 ± 0.063 | 2.85 ± 0.037 |
| EIHPITFPPEVLARISP [RRP43] | 2.05 ± 0.041 | 2.57 ± 0.054 | 2.4 ± 0.049 | 1.94 ± 0.041 |
| AYILAAQKTSFEYEGVQ [RPN1] | 2.39 ± 0.072 | 2.35 ± 0.079 | 2.2 ± 0.15 | 2.23 ± 0.08 |
| PDENKTRVRLPSGAKKV [RPL2A] | 3.12 ± 0.075 | 2.96 ± 0.079 | 3.1 ± 0.037 | 3.08 ± 0.05 |
| QMDGFDNLGQTKIIMAT [RPT4] | 3.54 ± 0.091 | 3.55 ± 0.11 | 3.66 ± 0.082 | 3.48 ± 0.098 |
| NSSEQESDYEPNNETSV [SIR3] | 3.11 ± 0.084 | 3.27 ± 0.085 | 3.02 ± 0.063 | 2.84 ± 0.092 |
| NSKPVELKPVSLDNKTL [YJL041W/NSP1] | 2.8 ± 0.055 | 2.75 ± 0.059 | 2.69 ± 0.076 | 2.58 ± 0.064 |
| KKCHRLLWTPKKLEITS [RPR2] | 2.35 ± 0.045 | 2.48 ± 0.044 | 2.59 ± 0.038 | 2.34 ± 0.031 |
| SGTTNFMRNGLLEGLNE [UBP6] | 2.73 ± 0.21 | 2.87 ± 0.14 | 3.22 ± 0.17 | 3.45 ± 0.23 |
| PLLVPGMTPCTVSPDFV [FAS1] | 1.64 ± 0.096 | 2.38 ± 0.055 | 1.98 ± 0.11 | 1.64 ± 0.065 |
| DRLSLQDRQQLLPLVVS [ECM29] | 2 ± 0.051 | 2.06 ± 0.044 | 1.64 ± 0.08 | 1.84 ± 0.037 |
